In US20240368233A1 (University of Washington, published 2024):

How the values were obtained:
[1] = target: T1, 275B; assay: BLI, steady state fit
T1 construct: also called LHD275 B; LHD275B
T1 chain: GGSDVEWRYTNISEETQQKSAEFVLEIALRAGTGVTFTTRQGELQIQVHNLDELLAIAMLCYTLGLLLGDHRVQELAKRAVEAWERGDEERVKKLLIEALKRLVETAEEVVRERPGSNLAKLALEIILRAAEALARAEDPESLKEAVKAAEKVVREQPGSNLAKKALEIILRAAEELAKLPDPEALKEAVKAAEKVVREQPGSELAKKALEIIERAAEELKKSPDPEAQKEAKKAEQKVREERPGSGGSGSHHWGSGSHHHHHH
Protocol: (§1) Biolayer interferometry experiments were performed on an OctetRED96 BLI system (ForteBio, Menlo Park, CA). Streptavidin coated biosensors were first equilibrated for at least 10 minutes in Octet buffer (10 mM HEPES pH 7.4, 150 mM NaCl, 3 mM EDTA, 0.05% Surfactant P20) supplemented with 1 mg/ml Bovine Serum Albumin (SigmaAldrich). Enzymatically biotinylated designs were immobilized onto the biosensors by dipping the biosensors into a solution with 10-50 nM protein for 30-120 s. This was followed by dipping in fresh octet buffer to establish a baseline for 120 s. Titration experiments were performed at 25° C. while rotating at 1,000 r.p.m. Association of designs was allowed by dipping biosensors in solutions containing designed protein diluted in octet buffer until equilibrium was approached followed by dissociation by dipping the biosensors into fresh buffer solution in order to monitor the dissociation kinetics. Steady-state and global kinetic fits were performed using the manufacturer's software (Data Analysis 9.1) assuming a 1:1 binding model.

[2] = target: T1, 275B; assay: BLI, global kinetic fit, 1:1 model
Protocol: as §1

[3] = target: the molecule itself; assay: SEC titration of the protomer alone at several injection concentrations (Superdex 75, normalised A230); self-association
[4] = target: T2, 278B; assay: BLI, steady state fit
T2 construct: also called LHD278 B; LHD278 chainB
T2 chain: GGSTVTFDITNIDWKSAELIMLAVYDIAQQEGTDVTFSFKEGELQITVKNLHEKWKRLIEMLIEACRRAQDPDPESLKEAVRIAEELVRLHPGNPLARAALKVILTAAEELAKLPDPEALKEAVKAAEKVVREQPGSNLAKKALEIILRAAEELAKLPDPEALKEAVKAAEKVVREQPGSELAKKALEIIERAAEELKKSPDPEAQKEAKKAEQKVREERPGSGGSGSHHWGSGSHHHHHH
Protocol: as §1

[5] = target: T2, 278B; assay: BLI, global kinetic fit, 1:1 model
Protocol: as §1

[6] = target: T3, DF202; assay: SEC of mixed components; trimer listed in Table 6
T3 construct: Bivalent connector
T3 chain: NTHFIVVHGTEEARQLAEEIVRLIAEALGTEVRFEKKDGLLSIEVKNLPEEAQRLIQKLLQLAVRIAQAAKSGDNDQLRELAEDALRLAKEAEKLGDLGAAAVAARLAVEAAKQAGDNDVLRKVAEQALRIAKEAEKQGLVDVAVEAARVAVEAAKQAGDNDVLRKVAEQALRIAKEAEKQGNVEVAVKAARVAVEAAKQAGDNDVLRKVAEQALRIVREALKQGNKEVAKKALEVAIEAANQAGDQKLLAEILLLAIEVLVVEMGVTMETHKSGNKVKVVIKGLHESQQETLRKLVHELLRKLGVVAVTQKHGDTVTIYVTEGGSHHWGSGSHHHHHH

[7] = target: T4, DFB0; assay: SEC of mixed components; linear tetramer listed in Table 6, neighbours in the chain
T4 construct: Bivalent connector
T4 chain: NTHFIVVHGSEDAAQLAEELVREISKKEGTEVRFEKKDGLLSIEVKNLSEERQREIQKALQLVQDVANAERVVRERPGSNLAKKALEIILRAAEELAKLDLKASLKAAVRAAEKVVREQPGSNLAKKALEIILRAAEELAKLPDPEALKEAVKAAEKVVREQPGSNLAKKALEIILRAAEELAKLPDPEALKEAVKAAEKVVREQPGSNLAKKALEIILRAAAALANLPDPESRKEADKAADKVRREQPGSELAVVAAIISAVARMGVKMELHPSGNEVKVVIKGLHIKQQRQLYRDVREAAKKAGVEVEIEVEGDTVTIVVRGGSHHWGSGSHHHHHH

[8] = target: T5, DFB-1; assay: as above
T5 construct: Bivalent connector
T5 chain: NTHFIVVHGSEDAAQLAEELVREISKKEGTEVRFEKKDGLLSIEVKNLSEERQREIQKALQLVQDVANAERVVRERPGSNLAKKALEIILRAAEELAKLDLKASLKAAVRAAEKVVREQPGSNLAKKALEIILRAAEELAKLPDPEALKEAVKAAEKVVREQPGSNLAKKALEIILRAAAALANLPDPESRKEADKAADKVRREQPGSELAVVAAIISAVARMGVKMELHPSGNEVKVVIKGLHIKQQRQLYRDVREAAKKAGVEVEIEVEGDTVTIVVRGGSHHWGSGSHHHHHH

[9] = target: T6, DF206; assay: SEC of mixed components; tetramer (control pentamer) listed in Table 6, neighbours in the chain
T6 construct: Bivalent connector
T6 chain: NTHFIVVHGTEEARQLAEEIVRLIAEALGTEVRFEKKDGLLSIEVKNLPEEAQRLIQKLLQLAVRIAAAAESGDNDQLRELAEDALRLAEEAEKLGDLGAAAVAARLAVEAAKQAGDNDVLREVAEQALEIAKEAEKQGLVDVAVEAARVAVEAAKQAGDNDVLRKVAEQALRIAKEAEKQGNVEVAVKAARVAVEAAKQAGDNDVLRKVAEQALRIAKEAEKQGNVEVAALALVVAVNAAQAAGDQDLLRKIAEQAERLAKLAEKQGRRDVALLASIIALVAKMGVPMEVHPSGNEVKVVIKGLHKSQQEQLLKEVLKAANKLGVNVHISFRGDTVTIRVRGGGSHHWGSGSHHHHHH
Protocol: (§2) Complexes and individual components were diluted in 20 mM Tris pH 8.0, 100 mM NaCl. After o/n equilibration of the mixtures at room temperature or 4 degrees C., 500 ul of sample was injected onto a Superdex™ 200 10/300 increase GL (dimers, linear assemblies) or Superose™ 6 increase 10/300 GL (symmetric assemblies) (all columns from GE healthcare) using the absorbance at 230 nm or 473 nm (for GFP tagged components) as read-out. Dimers were mixed at monomer concentrations of 5 μM or higher. Trimer and ABCD tetramer mixtures contained 5 μM of the bivalent connector, and 7.5 μM of each terminal cap (lower absolute concentrations with the same ratios were used for some trimers). ABCA tetramer mixtures contained 5 μM per bivalent connector and 15 μM terminal cap. The hexamer mixture contained 3 μM of components C and D, 3.6 μM of B and E, and 4.4 μM of A and F. The branched assembly shown in FIG. 4A contained 2.8 μM of the trivalent connector and 4 μM of each cap. For the exchange experiment shown in FIG. 5A, the ABC trimer was preincubated at concentrations of 6 μM B and 9 μM each of A and C. C′ was then added to reach a final concentration of 2 μM B, 3 μM each of A and C, and 6 μM C′.

[10] = target: T1, 275B; assay: as above
Protocol: as §2

[11] = target: T7, 284B; assay: BLI, steady state fit
T7 construct: also called LHD284 B; LHD284 chainB
T7 chain: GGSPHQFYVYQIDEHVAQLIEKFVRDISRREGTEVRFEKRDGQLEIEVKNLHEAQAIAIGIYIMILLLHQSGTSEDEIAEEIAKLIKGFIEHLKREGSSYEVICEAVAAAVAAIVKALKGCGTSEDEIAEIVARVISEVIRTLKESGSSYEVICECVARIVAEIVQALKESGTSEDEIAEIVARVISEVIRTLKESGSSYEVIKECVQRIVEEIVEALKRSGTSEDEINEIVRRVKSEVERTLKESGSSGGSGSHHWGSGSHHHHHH
Protocol: as §1

[12] = target: T7, 284B; assay: BLI, global kinetic fit, 1:1 model
Protocol: as §1

[13] = target: T8, 289B; assay: BLI, steady state fit
T8 construct: also called LHD289 B; LHD289 chainB
T8 chain: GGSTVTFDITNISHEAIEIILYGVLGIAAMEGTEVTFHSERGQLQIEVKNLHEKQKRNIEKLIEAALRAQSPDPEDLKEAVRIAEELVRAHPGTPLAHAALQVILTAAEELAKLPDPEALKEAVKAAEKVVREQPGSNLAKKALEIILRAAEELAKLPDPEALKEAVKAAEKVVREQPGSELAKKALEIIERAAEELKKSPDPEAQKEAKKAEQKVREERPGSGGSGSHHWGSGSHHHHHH
Protocol: as §1

[14] = target: T8, 289B; assay: BLI, global kinetic fit, 1:1 model
Protocol: as §1

[15] = target: T9, 298B; assay: BLI, steady state fit
T9 construct: also called LHD298 B; LHD298 chainB
T9 chain: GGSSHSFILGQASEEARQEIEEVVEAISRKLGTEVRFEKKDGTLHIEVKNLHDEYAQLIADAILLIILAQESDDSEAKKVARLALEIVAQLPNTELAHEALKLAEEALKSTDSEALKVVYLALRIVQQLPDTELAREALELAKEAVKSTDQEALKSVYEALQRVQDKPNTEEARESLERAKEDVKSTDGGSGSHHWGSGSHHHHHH
Protocol: as §1

[16] = target: T9, 298B; assay: BLI, global kinetic fit, 1:1 model
Protocol: as §1

B1: LHD275 chainA (designed binder)
chain: GRQEKVLKSIEETVRKMGVEMLTFRAGNAVIVVIRGLHPEQAKQLLRDVSQTAHKQGVTVTLTFHGDVVFILVLVGASEEEQKHMQERIQELARIIHEAKRRGVSEEQLREIAEKMAKEIQEWG
notes: also called LHD275A
[1]
  Kd: 4.5 nM
[2]
  Kd: 2.9 nM
  koff: 0.00041 s⁻¹
  kon: 140000 M⁻¹ s⁻¹
[3]
  binding result: no binding (tested: 8.0 uM)

B2: LHD278 chainA (designed binder)
chain: GRQEKVLKSIEETVRKMGVRMLTHRGGNAVIVVIEGLHPSQIKQLMQDVIKTAKKQGVTVTITVSGDIVVIMVVVGASDEEQEEARRLVQEIARALQEAKRKGANEEQLEQLLRELLERAEREG
notes: also called LHD278A
[4]
  Kd: 3.4 nM
[5]
  Kd: 0.8 nM
  koff: 0.00022 s⁻¹
  kon: 290000 M⁻¹ s⁻¹
[3]
  binding result: no binding (tested: 52.4 uM)

B3: DFA0 (designed binder)
chain: TTNFHLINGSEEARQLIEKAVRAISKKEGTEVHFEKSDGTLEIRVKNLHEKREREIKKVIELILEVAAAERIVRERPGSNLAKKALEIILRAAEELAKADVDAALEAAVRAAEKVVREQPGSNLAKKALEIILRAAEELAKLPDPEALKEAVKAAEKVVREQPGSNLAKKALEIILRAAEELAKLPDPEALKEAVKAAEKVVREQPGSNLAKKALEIILRAAAALANLPDPESRKEADKAADKVRREQPGSELAVVAAIISAVARMGVKMELHPSGNEVKVVIKGLHIKQQRQLYRDVREAAKKAGVEVEIEVEGDTVTIVVRGGSHHWGSGSHHHHHH
notes: Bivalent connector
[6]
  binding result: binds
[7]
  binding result: binds
[8]
  binding result: binds
[9]
  binding result: binds

B4: DF275A-1 (designed binder)
chain: HHHHHHGSGSGRQEKVLKSIEETVRKMGVEMLTFRAGKAVIVVIRGLHPEQAKQLLRDVSQTAHKQGVTVTLTFHGDVVFILVLVGASEEQQRAMQLLIQALARIIHEAKRRGVSEEQLKRMIEAAARLIEVLLKALEAAREGNTDEVREQLQRALEIVREIGLTAAVRLALLVVEAVATLAAKRGNTDAVREALEVALEIARESGTTEAVKLALEVVARVAIEAARRGNTDAVREALEVALEIARESGTTEAVKLALEVVARVAIEAARRGNTDAVREALAVAVKIALKSGTEEAFRLAKEVIKRVSDEAKKQGNEDAVKEAESFDAAAELILSLLKLFRELHERGTEIVVEVHINGRKTEIEVQGIDKRLLQIILEVIIEEIAREGPDKVEVNVHSGGQTWTFRYGGS
notes: Bivalent connector
[10]
  binding result: binds

B5: LHD284 chainA (designed binder)
chain: TDELLERLRQLFEELHERGTIIIVEVHINGERQTKYLILAPKEELKKHLERIREKIEREGSSEVEVKVTSGGTTWTFNEK
notes: also called LHD284A
[11]
  Kd: 97 nM
[12]
  Kd: 8.9 nM
  koff: 0.0012 s⁻¹
  kon: 130000 M⁻¹ s⁻¹

B6: LHD289 chainA (designed binder)
chain: GRQEKVLKSIEETVRKMGVTMLTHRHGNVVFVVILGLHKQQALQLLRDVHRTAHKQGVTLSITFSGDIVVIAVTVGASEEEKKEVRKIVKEIAKQLRHAETEEEAKEIVQRVIEEWQEEG
notes: also called LHD289A
[13]
  Kd: 610 nM
[14]
  Kd: 1080 nM
  koff: 0.057 s⁻¹
  kon: 53000 M⁻¹ s⁻¹

B7: LHD298 chainA (designed binder)
chain: GRQEKVLKSIEETVRKMGVTMETHRSGNTVKVVIKGLHESQQEQLHKDVEETVQKEGVFVLVSHHGDTVTIQVYE
notes: also called LHD298A
[15]
  Kd: 16 nM
[16]
  Kd: 3.5 nM
  koff: 0.00022 s⁻¹
  kon: 64000 M⁻¹ s⁻¹
